Measurements: PMC9484798

Biological target: U6, a member of the malonate semialdehyde decarboxylase (MSAD)-like subgroup of the tautomerase superfamily
Assay: native MS

Substance: U6, a member of the malonate semialdehyde decarboxylase (MSAD)-like subgroup of the tautomerase superfamily (enzyme)
- stoichiometry N: 3
